These results are taken from ChEMBL document CHEMBL1130474, “Conformationally restricted arginine analogues as inhibitors of human nitric oxide synthase” (Bioorg Med Chem Lett, 1997).

Substrate in data set [1]: N=C(N)NCCC[C@H](N)C(=O)O
Substrate in data set [2]: N=C(N)NCCC[C@H](N)C(=O)O
The source holds these as a separate data set.

B1: Nitric oxide synthase 3 (Homo sapiens), P29474 (protein)
chain: MGNLKSVAQEPGPPCGLGLGLGLGLCGKQGPATPAPEPSRAPASLLPPAPEHSPPSSPLTQPPEGPKFPRVKNWEVGSITYDTLSAQAQQDGPCTPRRCLGSLVFPRKLQGRPSPGPPAPEQLLSQARDFINQYYSSIKRSGSQAHEQRLQEVEAEVAATGTYQLRESELVFGAKQAWRNAPRCVGRIQWGKLQVFDARDCRSAQEMFTYICNHIKYATNRGNLRSAITVFPQRCPGRGDFRIWNSQLVRYAGYRQQDGSVRGDPANVEITELCIQHGWTPGNGRFDVLPLLLQAPDDPPELFLLPPELVLEVPLEHPTLEWFAALGLRWYALPAVSNMLLEIGGLEFPAAPFSGWYMSTEIGTRNLCDPHRYNILEDVAVCMDLDTRTTSSLWKDKAAVEINVAVLHSYQLAKVTIVDHHAATASFMKHLENEQKARGGCPADWAWIVPPISGSLTPVFHQEMVNYFLSPAFRYQPDPWKGSAAKGTGITRKKTFKEVANAVKISASLMGTVMAKRVKATILYGSETGRAQSYAQQLGRLFRKAFDPRVLCMDEYDVVSLEHETLVLVVTSTFGNGDPPENGESFAAALMEMSGPYNSSPRPEQHKSYKIRFNSISCSDPLVSSWRRKRKESSNTDSAGALGTLRFCVFGLGSRAYPHFCAFARAVDTRLEELGGERLLQLGQGDELCGQEEAFRGWAQAAFQAACETFCVGEDAKAAARDIFSPKRSWKRQRYRLSAQAEGLQLLPGLIHVHRRKMFQATIRSVENLQSSKSTRATILVRLDTGGQEGLQYQPGDHIGVCPPNRPGLVEALLSRVEDPPAPTEPVAVEQLEKGSPGGPPPGWVRDPRLPPCTLRQALTFFLDITSPPSPQLLRLLSTLAEEPREQQELEALSQDPRRYEEWKWFRCPTLLEVLEQFPSVALPAPLLLTQLPLLQPRYYSVSSAPSTHPGEIHLTVAVLAYRTQDGLGPLHYGVCSTWLSQLKPGDPVPCFIRGAPSFRLPPDPSLPCILVGPGTGIAPFRGFWQERLHDIESKGLQPTPMTLVFGCRCSQLDHLYRDEVQNAQQRGVFGRVLTAFSREPDNPKTYVQDILRTELAAEVHRVLCLERGHMFVCGDVTMATNVLQTVQRILATEGDMELDEAGDVIGVLRDQQRYHEDIFGLTLRTQEVTSRIRTQSFSLQERQLRGAVPWAFDPPGSDTNSP
With B1, in data set [1], the Km was determined as 0.9 µM.

B2: Nitric oxide synthase 1 (Homo sapiens), P29475 (protein)
chain: MEDHMFGVQQIQPNVISVRLFKRKVGGLGFLVKERVSKPPVIISDLIRGGAAEQSGLIQAGDIILAVNGRPLVDLSYDSALEVLRGIASETHVVLILRGPEGFTTHLETTFTGDGTPKTIRVTQPLGPPTKAVDLSHQPPAGKEQPLAVDGASGPGNGPQHAYDDGQEAGSLPHANGLAPRPPGQDPAKKATRVSLQGRGENNELLKEIEPVLSLLTSGSRGVKGGAPAKAEMKDMGIQVDRDLDGKSHKPLPLGVENDRVFNDLWGKGNVPVVLNNPYSEKEQPPTSGKQSPTKNGSPSKCPRFLKVKNWETEVVLTDTLHLKSTLETGCTEYICMGSIMHPSQHARRPEDVRTKGQLFPLAKEFIDQYYSSIKRFGSKAHMERLEEVNKEIDTTSTYQLKDTELIYGAKHAWRNASRCVGRIQWSKLQVFDARDCTTAHGMFNYICNHVKYATNKGNLRSAITIFPQRTDGKHDFRVWNSQLIRYAGYKQPDGSTLGDPANVQFTEICIQQGWKPPRGRFDVLPLLLQANGNDPELFQIPPELVLEVPIRHPKFEWFKDLGLKWYGLPAVSNMLLEIGGLEFSACPFSGWYMGTEIGVRDYCDNSRYNILEEVAKKMNLDMRKTSSLWKDQALVEINIAVLYSFQSDKVTIVDHHSATESFIKHMENEYRCRGGCPADWVWIVPPMSGSITPVFHQEMLNYRLTPSFEYQPDPWNTHVWKGTNGTPTKRRAIGFKKLAEAVKFSAKLMGQAMAKRVKATILYATETGKSQAYAKTLCEIFKHAFDAKVMSMEEYDIVHLEHETLVLVVTSTFGNGDPPENGEKFGCALMEMRHPNSVQEERKSYKVRFNSVSSYSDSQKSSGDGPDLRDNFESAGPLANVRFSVFGLGSRAYPHFCAFGHAVDTLLEELGGERILKMREGDELCGQEEAFRTWAKKVFKAACDVFCVGDDVNIEKANNSLISNDRSWKRNKFRLTFVAEAPELTQGLSNVHKKRVSAARLLSRQNLQSPKSSRSTIFVRLHTNGSQELQYQPGDHLGVFPGNHEDLVNALIERLEDAPPVNQMVKVELLEERNTALGVISNWTDELRLPPCTIFQAFKYYLDITTPPTPLQLQQFASLATSEKEKQRLLVLSKGLQEYEEWKWGKNPTIVEVLEEFPSIQMPATLLLTQLSLLQPRYYSISSSPDMYPDEVHLTVAIVSYRTRDGEGPIHHGVCSSWLNRIQADELVPCFVRGAPSFHLPRNPQVPCILVGPGTGIAPFRSFWQQRQFDIQHKGMNPCPMVLVFGCRQSKIDHIYREETLQAKNKGVFRELYTAYSREPDKPKKYVQDILQEQLAESVYRALKEQGGHIYVCGDVTMAADVLKAIQRIMTQQGKLSAEDAGVFISRMRDDNRYHEDIFGVTLRTYEVTNRLRSESIAFIEESKKDTDEVFSS
As to B2, the Km in data set [2] was 1.6 µM.

The term Km denotes the substrate concentration at which the rate is half of its maximum.
